Publication PMC11852929 (Journal of Virology, 2025)

Biological target: T1, SARS-CoV-2 Omicron BA.5 S ectodomain trimer (BA.5-Spike-6P) (SARS-CoV-2 Omicron BA.5, S375F | D405N | R408S | K417N | Q498R | N501Y | Y505H)
T1 construct: also called BA.5 spike (S) trimer; BA.5 S trimer
Test: cryo-EM structure
Details: both partners purified

B1: ORB10 fragment antigen-binding region (Fab) (Fab, V domains shown)
VH: QVQLQQSGAELVRPGSSVKISCKASGYAFSNYWMNWVKQRPGEGLEWIGQIYPGDGDTDYNGKFKGRATLTADKSSSTAYMQLSSLTSEDSAVYFCARGDDGYYVYFDYWGQGTTLTVSS
VL: EIVLTQSPALMAASPGEKVTITCSVSSSIGSNNLHWYQQKSETSPKPWIYGTSNLASGVPVRFSGSGSGTSYSLTISTMEAEDAATYYCQQWSGYPLTFGGGTKLEIK
notes: also called ORB10 Fab
stoichiometry N: 2 Fabs per S trimer
